Measurements: PMC8457657

Target: pseudotyped SARS-CoV-2 (spike on lentivirus), active (SARS-CoV-2) (UniProt P0DTC2)
Test: ELONA
Details: pH 7.2, pH 7.4, room temperature ([…], MST 10 min)

## CCCGACCAGCCACCATCAGCAACTCTTCCGCGTCCATCCCTGCTG [SARS2-AR10]
  Kd: 79 nM
